How the values were obtained:
[1] = tested on: ITD mutant human FLT3 (hFLT3ITD); assay: Cell surface binding to Ba/F3 hFLT3ITD, flow cytometry
From the text: FIG. 1: Evaluation of epitope specificity and internalization capability of anti-FLT3 monoclonal antibodies. (A) Affinity of seven anti-FLT3 monoclonal antibody (mab) clones to recombinant human FLT3 measured in enzyme-linked immunosorbent assay (ELISA) normalized to the binding of the antibodies to BSA control. […] (B) Schematic FLT3 receptor. Black arrows indicate common mutations and blue arrows indicate the three identified epitopes of seven anti-FLT3 antibodies analyzed in linear epitope mapping by PEPperPRINT. Figure was created with BioRender.com. (C) Binding and temperature induced internalization of anti-FLT3 antibodies in Ba/F3 cells expressing human wildtype FLT3. […] Remaining surface-bound antibody was detected in flow cytometry. […] MFI=mean fluorescence intensity. […] (D) Cell surface binding of 20D9 mab or control human IgG1 antibody to Ba/F3 cells stably expressing pMIY (Ba/F3-pMIY) empty vector (ev), human wildtype (hFLT3 wt) or ITD mutant human FLT3 (hFLT3ITD) was measured in flow cytometry. […] (E) Temperature induced internalization of 4B12 mab in MOLM-13 (FLT3 positive) cells after 30 min incubation at 37° C. compared to 4° C. and HL-60 (FLT3 negative) after 37° C. incubation assessed in immunofluorescence staining. […] (G) Cell surface binding of 20D9 mab or control hIgG1 antibody to Ba/F3-PMIY ev, hFLT3 wt or epitope mutant FLT3 (hFLT3/S50P/P54R) measured in flow cytometry. […]

human CD64 = biological target: T1, human CD64 (Homo sapiens, UniProt P12314); assay: Cell surface binding to Ba/F3 human CD64, flow cytometry
T1 construct: host or cells: Ba/F3 cells, retrovirally transduced with MSCV-IRES-YFP (pMIY) vector
Procedure: For antibody binding studies, cells were stained on ice with primary mouse, rat or human anti-FLT3 antibodies (in house) and secondary antibody Goat F(ab′)2 Anti-Human Ig-PE (2012-09), Goat Anti-Mouse IgG (H+L)-PE (1032-09) or Goat Anti-Rat IgG (H+L)-PE (3052-09) purchased from Southern Biotech. For internalization experiments, cells incubated with anti-FLT3 antibodies were washed and incubated for 30 min at 4° C. or 37° C. followed by staining with secondary antibody.
Murine FLT3 (OMu21985D, Genescript), human CD64 (RC207487), CD32 (RC205786) and CD16 (RC206429), were purchased from Origene. Cynomolgues monkey FLT3 gene was synthesized from XM_015439107.1 by Eurofins. The constructs were cloned into retroviral expression vector MSCV-IRES-YFP (pMIY) using the In-Fusion HD Cloning Plus Kit (Takara Bio, Saint-Germain-en-Laye, France). All FLT3 point mutations were generated using the QuikChange II XL Site-Directed Mutagenesis Kit (Agilent Technologies, Santa Clara, CA, USA) and correct sequence was confirmed by Sanger sequencing. […]
For FLT3 expression analysis, cells were stained on ice with primary mouse anti-FLT3-AF647 antibodies for 30 min. […] Binding and expression were subsequently measured at the flow cytometer (BD FACSCanto II) and the results were evaluated with FlowJo version 10.8.1.

[2] = tested on: FLT3 mutants FLT3/NPOS, FLT3/D835Y, FLT3/D835V, FLT3/NPOS D835Y, FLT3/NPOS N676K, FLT3/NPOS F6911, FLT3/NPOS F691L; assay: Cell surface binding to Ba/F3 FLT3ITD and TKD mutants; design: species or system human
Procedure: For FLT3 expression analysis, cells were stained on ice with primary mouse anti-FLT3-AF647 antibodies for 30 min. For antibody binding studies, cells were stained on ice with chimeric (20D9) or humanized anti-FLT3 antibodies (in house) or IgG1 control with or without Leu234Ala/Leu235Ala (LALA)-mutation in the Fc region and secondary antibody goat F(ab′)2 Anti-Human IgG-AF647 (2042-31) purchased from Southern Biotech for 30 min, respectively. Binding and expression were subsequently measured at the flow cytometer (BD FACSCanto II) and the results were evaluated with FlowJo version 10.8.1.

[3] = tested on: FLT3 positive human cell lines; assay: Cytotoxicity in leukemia and lymphoma cell lines, 96 h resazurin; assay type: cell-based; details: FLT3 positive and negative cell lines
From the text: (A) Correlation of MFI of CD64 cell surface expression and MFI of FLT3 cell surface expression of myeloid human cell lines measure in flow cytometry. Expression data presented in Supplementary FIGS. 4A and B. Black line indicates simple linear regression with error interval. r=Pearson correlation coefficient; r^2=Coefficient of determination; p=p value from two tailed test with confidence interval of 95%. MFI=mean fluorescence intensity. (B,C,E,F) Assessment of cytotoxicity of ADCs in different human cell lines. Viability was determined after 96h treatment with different concentrations of ADCs by resazurin fluorescence and normalized to untreated control. Dashed line indicates 100 ng/ml drug concentration. Mean±s.d. of n=3 biological replicates. […] Black line indicates simple linear regression with error interval. (E) Treatment of FLT3 positive human cell lines with IgG1-ADC.

[4] = tested on: PDX AML cells with FLT3-ITD mutation; assay: Ex vivo treatment of patient derived xenograft (PDX) samples; assay type: cell-based, human

T1 sequence (P12314 16-374): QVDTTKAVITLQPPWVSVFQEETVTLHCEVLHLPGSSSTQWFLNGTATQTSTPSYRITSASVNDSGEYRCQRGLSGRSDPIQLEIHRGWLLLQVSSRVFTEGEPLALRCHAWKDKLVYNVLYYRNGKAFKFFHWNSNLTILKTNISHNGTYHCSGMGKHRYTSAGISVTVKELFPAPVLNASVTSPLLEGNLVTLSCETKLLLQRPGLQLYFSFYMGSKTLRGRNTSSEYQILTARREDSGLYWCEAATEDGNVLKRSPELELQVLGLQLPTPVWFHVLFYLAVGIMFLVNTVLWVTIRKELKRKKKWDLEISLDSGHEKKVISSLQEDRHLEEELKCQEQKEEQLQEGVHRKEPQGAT

Binding to Fc receptor CD64 via the IgG1 backbone (human CD64): verified the binding
B1: 20D9: chimeric (rat variable regions, human IgG1) anti-FLT3 monoclonal antibody; VH SEQ ID NO: 5, VL SEQ ID NO: 6 (antibody, V domains shown)
VH: DVMLVESGGGLVQPGRSLKLSCVASGFTFNNYWMTWIRQAPGKGLEWIASITKTGGGTYYPDSVKGRFTISRDNAKSTLYLQMNSLRSEDTATYYCTTLQQLGVMDAWGQGASVTVSSA
VL: DVQMTQSPSVLSASVGDRITLNCKASQNINKELNWYQQKLGEAPKLLIYNTNNLQTGIPSRFSGSGSGTDYTLTISSLQPEDVATYFCFQHKSWPLTFGSGTKLEIKR
modifications: Clone 20D9, heavy chain variable region without a signal seqeunce; Clone 20D9, light chain variable region without a signal seqeunce
Binding to Ba/F3 cell lines expressing FLT3-ITD [1]: specific binding
Binding to FLT3 with common mutations [2]: also binds to FLT3 with common mutations
Effect of unconjugated antibody on cell proliferation [3]: did not impair cell proliferation
Ex vivo sensitivity of PDX cells [4]: remained ineffective
